Measured values taken from patent US9625458.
Substitutions are numbered along the chain they refer to. In names and notes the source's numbering stands. Blank lines part the entries; values can stand above or below the binder they belong to.

Experiments:
Gly-Leu dipeptide [1] = assay: fluorimetric titration of the fluorophore conjugate with ligand, fit to a binding isotherm
Gly-Leu dipeptide [2] = assay: fluorimetric titration of the fluorophore conjugate with ligand, fit to binding isotherm
Gly-Leu dipeptide [3] = assay: fluorimetric titration of the fluorophore conjugate with ligand; low end of the range over 21 conjugates
Gly-Leu dipeptide [4] = assay: fluorimetric titration of the fluorophore conjugate with ligand; high end of the range over 21 conjugates

B1: dipeptide BP K394C mutant conjugated to NBD (protein, Escherichia coli, not shown: small tags and cut ends)
chain: MKTLVYCSEGSPEGFNPQLFTSGTTYDASSVPLYNRLVEFKIGTTEVIPGLAEKWEVSEDGKTYTFHLRKGVKWHDNKEFKPTRELNADDVVFSFDRQKNAQNPYHKVSGGSYEYFEGMGLPELISEVKKVDDNTVQFVLTRPEAPFLADLAMDFASILSKEYADAMMKAGTPEKLDLNPIGTGPFQLQQYQKDSRIRYKAFDGYWGTKPQIDTLVFSITPDASVRYAKLQKNECQVMPYPNPADIARMKQDKSINLMEMPGLNVGYLSYNVQKKPLDDVKVRQALTYAVNKDAIIKAVYQGAGVSAKNLIPPTMWGYNDDVQDYTYDPEKAKALLKEAGLEKGFSIDLWAMPVQRPYNPNARRMAEMIQADWAKVGVQAKIVTYEWGEYLKRACDGEHQTVMMGWTGDNGDPDNFFATLFSCAASEQGSNYSKWCYKPFEDLIQPARATDDHNKRVELYKQAQVVMHDQAPALIIAHSTVFEPVRKEVKGYVVDPLGKHHFENVSIE
modifications: NBD fluorophore (N,N'-dimethyl-N-(iodoacetyl)-N'-(7-nitrobenz-2-oxa-1,3-diazol-4-yl)ethylenediamide) conjugated to the thiol of Cys 394
Kd (Gly-Leu dipeptide [1]): 6 nM

B3: dipeptide BP K394C-Acrylodan conjugate (receptor, E. coli, not shown: small tags and cut ends)
chain: B1 chain
modifications: acrylodan fluorophore conjugated to the thiol of Cys 394
Kd (Gly-Leu dipeptide [2]): 23000 nM

B4: dipeptide BP D450C-Acrylodan conjugate (receptor, E. coli, not shown: small tags and cut ends)
chain: B1 chain with C395K, D451C
modifications: acrylodan fluorophore conjugated to the thiol of Cys 450
Kd (Gly-Leu dipeptide [2]): 11000 nM

B6: dipeptide BP D450C-JPW4042 conjugate (receptor, E. coli, not shown: small tags and cut ends)
chain: B1 chain with C395K, D451C
modifications: JPW4042 fluorophore conjugated to the thiol of Cys 450
Kd (Gly-Leu dipeptide [2]): 1500 nM

B10: dipeptide BP K394C-JPW4042 conjugate (receptor, E. coli, not shown: small tags and cut ends)
chain: B1 chain
modifications: JPW4042 fluorophore conjugated to the thiol of Cys 394
Kd (Gly-Leu dipeptide [2]): 78000 nM

B11: dipeptide BP K394C-NBD conjugate (receptor, E. coli, not shown: small tags and cut ends)
chain: B1 chain
modifications: NBD fluorophore conjugated to the thiol of Cys 394
Kd (Gly-Leu dipeptide [2]): 12 nM

B14: dipeptide BP D450C-JPW4039 conjugate (receptor, E. coli, not shown: small tags and cut ends)
chain: B1 chain with C395K, D451C
modifications: JPW4039 fluorophore conjugated to the thiol of Cys 450
Kd (Gly-Leu dipeptide [2]): 910 nM

B15: dipeptide BP K394C-JPW4039 conjugate (receptor, E. coli, not shown: small tags and cut ends)
chain: B1 chain
modifications: JPW4039 fluorophore conjugated to the thiol of Cys 394
Kd (Gly-Leu dipeptide [2]): 30000 nM

B17: dipeptide BP K394C conjugated to fluorescein (receptor, E. coli, not shown: small tags and cut ends)
chain: B1 chain
modifications: fluorescein (5-iodoacetamidofluorescein) conjugated to the thiol of Cys 394
Kd (Gly-Leu dipeptide [4]): 93000 nM

B20: dipeptide BP D450C-JPW4045 conjugate (receptor, E. coli, not shown: small tags and cut ends)
chain: B1 chain with C395K, D451C
modifications: JPW4045 fluorophore conjugated to the thiol of Cys 450
Kd (Gly-Leu dipeptide [2]): 2000 nM

B22: dipeptide BP K394C-Fluorescein conjugate (receptor, E. coli, not shown: small tags and cut ends)
chain: B1 chain
modifications: fluorescein (5-iodoacetamidofluorescein) conjugated to the thiol of Cys 394
Kd (Gly-Leu dipeptide [2]): 93000 nM

Further lines, results first:

Kd (Gly-Leu dipeptide [2]): 3200 nM
B2: dipeptide BP W315C-JPW4045 conjugate (receptor, E. coli, not shown: small tags and cut ends)
chain: B1 chain with W316C, C395K
modifications: JPW4045 fluorophore conjugated to the thiol of Cys 315

Kd (Gly-Leu dipeptide [2]): 640 nM
B5: dipeptide BP T44C-Fluorescein conjugate (receptor, E. coli, not shown: small tags and cut ends)
chain: B1 chain with T45C, C395K
modifications: fluorescein (5-iodoacetamidofluorescein) conjugated to the thiol of Cys 44

Kd (Gly-Leu dipeptide [2]): 2600 nM
B7: dipeptide BP S111C-Fluorescein conjugate (receptor, E. coli, not shown: small tags and cut ends)
chain: B1 chain with S112C, C395K
modifications: fluorescein (5-iodoacetamidofluorescein) conjugated to the thiol of Cys 111

Kd (Gly-Leu dipeptide [2]): 60 nM
B8: dipeptide BP W315C-NBD conjugate (receptor, E. coli, not shown: small tags and cut ends)
chain: B1 chain with W316C, C395K
modifications: NBD fluorophore conjugated to the thiol of Cys 315

Kd (Gly-Leu dipeptide [3]): 6 nM
B9: dipeptide BP T44C conjugated to NBD (receptor, E. coli, not shown: small tags and cut ends)
chain: B1 chain with T45C, C395K
modifications: NBD (N,N'-dimethyl-N-(iodoacetyl)-N'-(7-nitrobenz-2-oxa-1,3-diazol-4-yl)ethylenediamide) conjugated to the thiol of Cys 44

Kd (Gly-Leu dipeptide [2]): 4800 nM
B12: dipeptide BP S111C-Acrylodan conjugate (receptor, E. coli, not shown: small tags and cut ends)
chain: B1 chain with S112C, C395K
modifications: acrylodan fluorophore conjugated to the thiol of Cys 111

Kd (Gly-Leu dipeptide [2]): 6 nM
B13: dipeptide BP T44C-NBD conjugate (receptor, E. coli, not shown: small tags and cut ends)
chain: B1 chain with T45C, C395K
modifications: NBD fluorophore conjugated to the thiol of Cys 44

Kd (Gly-Leu dipeptide [2]): 2300 nM
B16: dipeptide BP R141C-Acrylodan conjugate (receptor, E. coli, not shown: small tags and cut ends)
chain: B1 chain with R142C, C395K
modifications: acrylodan fluorophore conjugated to the thiol of Cys 141

Kd (Gly-Leu dipeptide [2]): 130 nM
B18: dipeptide BP W315C-Acrylodan conjugate (receptor, E. coli, not shown: small tags and cut ends)
chain: B1 chain with W316C, C395K
modifications: acrylodan fluorophore conjugated to the thiol of Cys 315

Kd (Gly-Leu dipeptide [2]): 15800 nM
B19: dipeptide BP S111C-JPW4042 conjugate (receptor, E. coli, not shown: small tags and cut ends)
chain: B1 chain with S112C, C395K
modifications: JPW4042 fluorophore conjugated to the thiol of Cys 111

Kd (Gly-Leu dipeptide [2]): 38000 nM
B21: dipeptide BP R141C-Fluorescein conjugate (receptor, E. coli, not shown: small tags and cut ends)
chain: B1 chain with R142C, C395K
modifications: fluorescein (5-iodoacetamidofluorescein) conjugated to the thiol of Cys 141

Kd (Gly-Leu dipeptide [2]): 34000 nM
B23: dipeptide BP S111C-JPW4039 conjugate (receptor, E. coli, not shown: small tags and cut ends)
chain: B1 chain with S112C, C395K
modifications: JPW4039 fluorophore conjugated to the thiol of Cys 111

Kd (Gly-Leu dipeptide [2]): 1000 nM
B24: dipeptide BP W315C-JPW4039 conjugate (receptor, E. coli, not shown: small tags and cut ends)
chain: B1 chain with W316C, C395K
modifications: JPW4039 fluorophore conjugated to the thiol of Cys 315
